According to patent publication US7994133B2, “Isozyme-specific antagonists of protein kinase C” (The Board of Trustees of the Leland Stanford Junior …, priority 2003, dated 2011):

T1: GST-εRACK (Homo sapiens, UniProt P35606)
T1 construct: made in house; host or cells: Hi5 insect cells (baculovirus made in Sf9)
T1 sequence (P35606 2-906 limits assumed): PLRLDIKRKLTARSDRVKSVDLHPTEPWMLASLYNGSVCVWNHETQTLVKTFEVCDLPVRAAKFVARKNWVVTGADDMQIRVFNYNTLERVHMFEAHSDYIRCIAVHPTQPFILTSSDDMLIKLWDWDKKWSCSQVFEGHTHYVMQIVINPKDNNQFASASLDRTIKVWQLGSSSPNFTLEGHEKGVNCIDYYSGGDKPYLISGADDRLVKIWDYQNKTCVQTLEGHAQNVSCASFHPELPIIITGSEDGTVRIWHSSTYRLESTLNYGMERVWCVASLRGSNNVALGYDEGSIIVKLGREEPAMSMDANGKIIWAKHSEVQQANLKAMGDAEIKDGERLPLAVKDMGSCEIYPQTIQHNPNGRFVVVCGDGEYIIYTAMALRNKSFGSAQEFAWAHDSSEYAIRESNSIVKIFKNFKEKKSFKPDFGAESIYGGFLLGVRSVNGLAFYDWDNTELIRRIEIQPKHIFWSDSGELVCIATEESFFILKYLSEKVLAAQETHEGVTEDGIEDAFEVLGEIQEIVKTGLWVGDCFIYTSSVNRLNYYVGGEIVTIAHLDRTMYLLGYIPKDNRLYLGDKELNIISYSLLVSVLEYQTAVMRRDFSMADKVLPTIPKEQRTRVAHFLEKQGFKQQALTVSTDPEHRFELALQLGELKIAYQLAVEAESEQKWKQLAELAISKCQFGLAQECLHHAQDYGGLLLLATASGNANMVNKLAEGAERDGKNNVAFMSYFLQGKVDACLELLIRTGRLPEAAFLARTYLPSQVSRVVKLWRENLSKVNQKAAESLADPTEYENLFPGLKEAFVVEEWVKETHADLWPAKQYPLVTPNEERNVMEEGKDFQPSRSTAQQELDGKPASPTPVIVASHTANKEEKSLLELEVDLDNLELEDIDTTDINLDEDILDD


What was measured:
CHO cells = experiment: Real-time confocal imaging of ATP-induced εPKC translocation; type: cell-based; conditions: 1 mM ATP; for time after stimulation at which translocation was apparent: GFP fusion
Protocol: CHO cells were grown on glass coverslips, and serum-starved as described in Example 4. For each experiment, cells were transferred to a commercially available metal coverslip holder (Molecular Probes) in which the coverslip formed the bottom of a 1 ml bath. The media was then replaced with extracellular buffer (120 mM NaCl, 5 mM KCl, 1.5 mM CaCl2, 1.5 mM MgCl2, 20 mM HEPES and 30 mM glucose). Cells were stimulated by either PMA (100 nM), or with ATP (1 mM) in extracellular buffer. Fluorescence images of GFP-tagged constructs were obtained using the 488 nm excitation line of a laser scanning confocal microscope (Pascal, Zeiss) and emission was collected through a 505-550 nm band pass filter. Cells were imaged on the stage of an inverted microscope (Axiovert 100M) using a 40× Zeiss Plan-apo oil immersion objective with 1.2 numerical aperture (NA). For dual color imaging of CFP and YFP fusion proteins, a spinning disk Nipkow confocal microscope was used. Cells were viewed using an inverted Olympus IX70 microscope with a 40× oil immersion Olympus objective (1.35NA) and images were acquired with a CCD camera (Hamamatsu) and 2×2 pixel binning. CFP was excited with the 442 nm laser line of a helium-cadmium laser (Kimmon) whereas YFP was imaged with the 514 nm line of an argon ion laser (Melles-Griot). To selectively photobleach YFP labeled proteins in local regions of the cytoplasm for FRAP experiments, the 514 nm line of an Enterprise laser (Coherent) at maximal power (˜400 mW) was used. For these experiments, a 60× oil immersion objective was used (1.4NA). Under these conditions, and by placing an iris in the beam path, it was possible to bleach 80% of the YFP fluorescence in 500 ms in an area of the cytosol measuring approximately 35 um2. Real time confocal images were acquired every 10-15 seconds for 20 minutes for experiments utilizing PMA, and every 5 seconds for a total duration of 3 minutes in the case of cells stimulated with ATP. Reagents were added to the cell chamber after the fifth image in each time series. […] All images were acquired at room temperature. Images were exported as 12 or 16 bit files and changes in fluorescence intensity were measured using MetaMorph® data analysis software (Universal Imaging Corp.). To monitor the translocation of PKC, a small region of interest was selected in the cytosol of each cell and fluorescence intensity values graphed against time after subtraction of background values and normalized so that the initial fluorescence was 100%. Averages of 10-15 cells from three independent experiments were used. To determine statistical significance, a 1 tail type 2 T-test (Microsoft excel) was used.
It was next determined whether differences in translocation rates of the different εPKCs were also observed when translocation was stimulated via receptor signaling rather than by PMA. ATP has been previously used to activate PKC in CHO cells by stimulating purinergic G protein-coupled receptors [Maasch, C. et al., FASEB J. 14:1653-1663 (2000)]. All methods for this Example were performed as described, for example, in Examples 4, 6 and 7.

GST-εRACK = molecular target: T1, GST-εRACK; experiment: εRACK binding assay; conditions: for change of binding to εRACK in the presence of PL: with versus without phosphatidylserine and Sn-1,2 dioleoylglycerol
Protocol: RACKs bind active PKC [Mochly-Rosen, D. & Gordon, A. S., FASEB J. 12:35-42 (1998); Mochly-Rosen, D. et al., Molec. Biol. Cell. (formerly Cell Regulation) 1:693-706 (1990).
Insect cells expressing either εPKC or GST-εRACK were lysed as described in Example 4. GST-εRACK, […] was immobilized on Glutathion-Sepharose 4B beads (Amersham-Pharmacia), and washed thoroughly with wash buffer (20 mM Tris-HCl pH 7.5, 2 mM EDTA, 100 mM NaCl, 12 mM βME, and 0.1% TritonX-100). Immobilized GST-εRACK was then incubated with the soluble fraction of insect cell lysates containing 100 ng Wt, D(86)A, or D(86)N εPKC protein, in the presence or absence of phospholipid activators (PL) (phosphatidylserine 12 μg/reaction and, Sn-1,2 dioleoylglycerol 400 ng/reaction) for 1 hour at 4° C. Upon thorough washing with wash buffer, bound proteins were eluted in SDS-PAGE sample buffer and proteins separated on 8% SDS-PAGE gels. The amount of εPKC interacting with εRACK was determined by Western blot probing for εPKC with anti εPKC-V5 antibodies. Blots were then re-probed with ant-GST (Santa Cruz) to verify that the same amount of GST-εRACK was present in each binding assay. All other methods for this Example were performed as described, for example, in Example 4.

Row | Molecule | time after stimulation at which translocation was apparent (CHO cells) [s] | binding to εRACK relative to D(86)N or Wt (GST-εRACK; absence of PL activators) | change of binding to εRACK in the presence of PL (GST-εRACK) | steady state level compared with D(86)A or Wt (CHO cells) | translocation rate in comparison to wild type (CHO cells) | εRACK binding compared with D(86)A or Wt (GST-εRACK; presence of an equal concentration of PL)
1 | D(86)A: εPKC mutant wherein D at position 86 of ΨεRACK on εPKC is substituted with an A (protein) MVVFNGLLKIKICEAVSLKPTAWSLRHAVGPRPATFLLDPYIALNVDDSRIGQTATKQKTNSPAWHDEFVTDVCNGRKIELAVFHAAPIGYDDFVANCTIQFEELLQNGSRHFEDWIDLEPEGRVYVIIDLSGSSGEAPKDNEERVFRERMRPRKRQGAVRRRVHQVNGHKFMATYLRQPTYCSHCRDFIWGVIGKQGYQCQVCTCVVHKRCHELIITKCAGLKKQETPDQVGSQRFSVNMPHKFGIHNYKVPTFCDHCGSLLWGLLRQGLQCKVCKMNVHRRCETNVAPNCGVDARGIAKVLADLGVTPDKITNSGQRRKKLIAGAESPQPASGGSPSEEDRSKSAPTSPCDQEIKELENNIRKALSFDNRGEEHRAASSPDGQLMSPGENGEVRQGQAKRLGLDEFNFIKVLGKGSFGKVMLAELKGKDEVYAVKVLKKDVILQDDDVDCTMTEKRILALARKHPYLTQLYCCFQTKDRLFFVMEYVNGGDLMFQIQRSRKFDEPRSRFYAAEVTSALMFLHQHGVIYRDLKLDNILLDAEGHCKLADFGMCKEGILNGVTTTTFCGTPDYIAPEILQELEYGPSVDWWALGVLMYEMMAGQPPFEADNEDDLFESILHDDVLYPVWLSKEAVSILKAFMTKNPHKRLGCVASQNGEDAIKQHPFFKEIDWVLLEQKKIKPPFKPRIKTKRDVNNFDQDFTREEPVLTLVDEAIVKQINQEEFKGFSYFGEDLMP | 10 | at least two fold greater | not increased |  |  | 
2 | D(86)N: εPKC mutant wherein D at position 86 of ΨεRACK in εPKC is substituted with an N (protein) MVVFNGLLKIKICEAVSLKPTAWSLRHAVGPRPATFLLDPYIALNVDDSRIGQTATKQKTNSPAWHDEFVTDVCNGRKIELAVFHNAPIGYDDFVANCTIQFEELLQNGSRHFEDWIDLEPEGRVYVIIDLSGSSGEAPKDNEERVFRERMRPRKRQGAVRRRVHQVNGHKFMATYLRQPTYCSHCRDFIWGVIGKQGYQCQVCTCVVHKRCHELIITKCAGLKKQETPDQVGSQRFSVNMPHKFGIHNYKVPTFCDHCGSLLWGLLRQGLQCKVCKMNVHRRCETNVAPNCGVDARGIAKVLADLGVTPDKITNSGQRRKKLIAGAESPQPASGGSPSEEDRSKSAPTSPCDQEIKELENNIRKALSFDNRGEEHRAASSPDGQLMSPGENGEVRQGQAKRLGLDEFNFIKVLGKGSFGKVMLAELKGKDEVYAVKVLKKDVILQDDDVDCTMTEKRILALARKHPYLTQLYCCFQTKDRLFFVMEYVNGGDLMFQIQRSRKFDEPRSRFYAAEVTSALMFLHQHGVIYRDLKLDNILLDAEGHCKLADFGMCKEGILNGVTTTTFCGTPDYIAPEILQELEYGPSVDWWALGVLMYEMMAGQPPFEADNEDDLFESILHDDVLYPVWLSKEAVSILKAFMTKNPHKRLGCVASQNGEDAIKQHPFFKEIDWVLLEQKKIKPPFKPRIKTKRDVNNFDQDFTREEPVLTLVDEAIVKQINQEEFKGFSYFGEDLMP | 40 |  | significantly increased | significantly higher levels | slower translocation rate | less εRACK binding
3 | Wt: wild type εPKC, human construct (protein) MVVFNGLLKIKICEAVSLKPTAWSLRHAVGPRPATFLLDPYIALNVDDSRIGQTATKQKTNSPAWHDEFVTDVCNGRKIELAVFHDAPIGYDDFVANCTIQFEELLQNGSRHFEDWIDLEPEGRVYVIIDLSGSSGEAPKDNEERVFRERMRPRKRQGAVRRRVHQVNGHKFMATYLRQPTYCSHCRDFIWGVIGKQGYQCQVCTCVVHKRCHELIITKCAGLKKQETPDQVGSQRFSVNMPHKFGIHNYKVPTFCDHCGSLLWGLLRQGLQCKVCKMNVHRRCETNVAPNCGVDARGIAKVLADLGVTPDKITNSGQRRKKLIAGAESPQPASGGSPSEEDRSKSAPTSPCDQEIKELENNIRKALSFDNRGEEHRAASSPDGQLMSPGENGEVRQGQAKRLGLDEFNFIKVLGKGSFGKVMLAELKGKDEVYAVKVLKKDVILQDDDVDCTMTEKRILALARKHPYLTQLYCCFQTKDRLFFVMEYVNGGDLMFQIQRSRKFDEPRSRFYAAEVTSALMFLHQHGVIYRDLKLDNILLDAEGHCKLADFGMCKEGILNGVTTTTFCGTPDYIAPEILQELEYGPSVDWWALGVLMYEMMAGQPPFEADNEDDLFESILHDDVLYPVWLSKEAVSILKAFMTKNPHKRLGCVASQNGEDAIKQHPFFKEIDWVLLEQKKIKPPFKPRIKTKRDVNNFDQDFTREEPVLTLVDEAIVKQINQEEFKGFSYFGEDLMP | 10 |  | significantly increased |  |  | 
